Laboratory results: patent US20210322547A1

Key:
[1] = molecular target: Recombinant human GM-CSF (expression source not stated) (human) (UniProt P04141); experiment: competition ELISA; plate coated with 50 ng/well recombinant GM-CSF; unlabeled antibody titrated together with 50 nM biotinylated Ab2; competition for 1 hr; neutravidin-HRP detection, A450
[2] = molecular target: Recombinant human GM-CSF (expression source not stated) (human) (UniProt P04141); experiment: competition ELISA; plate coated with 50 ng/well recombinant GM-CSF; unlabeled antibody titrated together with 50 nM biotinylated Ab2; competition for 18 hrs; neutravidin-HRP detection, A450

Sequence of UniProt P04141 (P04141 18-144 limits assumed): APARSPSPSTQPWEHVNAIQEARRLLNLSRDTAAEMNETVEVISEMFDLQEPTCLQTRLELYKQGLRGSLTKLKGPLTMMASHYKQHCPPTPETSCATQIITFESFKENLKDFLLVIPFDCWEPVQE

Substance: Ab2, chimeric IgG1k antibody having variable regions from the mouse antibody LMM102
- IC50 [1]: 122 nM
- IC50 [2]: 94 nM
